In patent US20200207837A1 (published 2020):
Changes are numbered by the printed parent chain.

T1: activated KLK4 (human KLK4, C-terminal His tag, pro-KLK4 activated with thermolysin) (UniProt Q9Y5K2 31-254)
T1 chain: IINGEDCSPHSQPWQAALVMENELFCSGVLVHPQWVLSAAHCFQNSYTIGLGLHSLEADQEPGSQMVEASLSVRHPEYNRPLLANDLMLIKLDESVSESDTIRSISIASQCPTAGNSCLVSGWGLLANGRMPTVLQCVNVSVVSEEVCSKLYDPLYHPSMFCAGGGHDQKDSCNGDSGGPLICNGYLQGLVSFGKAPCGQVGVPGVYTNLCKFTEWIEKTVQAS

T2: activated KLK8 (human KLK8, C-terminal His tag, pro-KLK8 activated with thermolysin) (UniProt O60259 33-260)
T2 chain: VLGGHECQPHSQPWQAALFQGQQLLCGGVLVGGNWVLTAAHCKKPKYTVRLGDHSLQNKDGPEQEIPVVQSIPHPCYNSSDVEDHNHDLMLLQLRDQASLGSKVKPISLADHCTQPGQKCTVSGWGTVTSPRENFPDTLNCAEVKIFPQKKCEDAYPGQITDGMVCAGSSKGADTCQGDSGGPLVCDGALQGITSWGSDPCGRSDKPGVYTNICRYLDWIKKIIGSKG

T3: KLK4 biotinylated with EZ-Link NHS-PEG4-Biotin (UniProt Q9Y5K2 31-254, biotinylated with EZ-Link NHS-PEG4-Biotin (sites not given))
T3 chain: T1 chain

B1: KLK1 inhibitory peptide K10071 (designed binder)
chain: GSGMKETAAAKFERQHMDSPDLGTDDDDKAMADIGSANSDPQFGLFSKYRTPNCDQNKYRDCHYYYKPVCGSDMSTYANECTLCMKIREGGHNIKIIRNGPCGASAAA
B2: KLK4/KLK8 inhibitory peptide K41047 (designed binder)
chain: GSGMKETAAAKFERQHMDSPDLGTDDDDKAMADIGSANSDPQFGLFSKYRTPNCMRFHKDGCARIYDPVCGSDMSTYANECTLCMKIREGGHNIKIIRNGPCGASAAA
B3: KLK4 inhibitory peptide K40004 (designed binder)
chain: GSGMKETAAAKFERQHMDSPDLGTDDDDKAMADIGSANSDPQFGLFSKYRTPNCEHAQLGVCQKLYQPVCGSDMSTYANECTLCMKIREGGHNIKIIRNGPCGASAAA
B4: KLK4 inhibitory peptide K40005 (designed binder)
chain: B1 chain with D55S, N57Q, K58A, Y59M, R60G, D61A, H63Q, Y64R, Y65I
B5: KLK4 inhibitory peptide K40003 (designed binder)
chain: B3 chain with H56L, A57Y, Q58V, L59E, G60D, K64R, L65I, Y66F, Q67K
B6: KLK4/KLK8 inhibitory peptide K41041 (designed binder)
chain: B2 chain with M55Q, F57Y, H58S, K59Q, D60W, A63T, I65Q, Y66L
B7: KLK4/KLK8 inhibitory peptide K41025 (designed binder)
chain: B2 chain with M55S, F57Y, H58K, K59S, D60G, A63T, Y66F
B8: KLK4/KLK8 inhibitory peptide K41026 (designed binder)
chain: B2 chain with M55Q, F57Y, H58K, K59M, D60R, A63N, I65M
B9: KLK1 inhibitory peptide K10061 (designed binder)
chain: B1 chain with D55A, Q56R, K58N, Y59I, R60V, H63F
B10: KLK4 inhibitory peptide K40001 (designed binder)
chain: B3 chain with E55R, H56K, A57Y, Q58E, L59Y, K64R, L65T, Q67L
B11: KLK1 inhibitory peptide K10062 (designed binder)
chain: B3 chain with E55D, H56I, A57Y, L59V, G60D, V61R, Q63W, K64W, L65A, Y66S
B12: KLK4/KLK8 inhibitory peptide K41021 (designed binder)
chain: B2 chain with M55R, R56K, F57H, H58T, K59L
B13: KLK4/KLK8 inhibitory peptide K41042 (designed binder)
chain: B2 chain with M55S, F57Y, H58R, K59R, D60E, A63N, I65M, D67N
B14: KLK4/KLK8 inhibitory peptide K41045 (designed binder)
chain: B2 chain with M55R, R56K, F57Q, H58Y, K59W, D60V, A63N, I65M, D67A
B15: KLK4/KLK8 inhibitory peptide K41024 (designed binder)
chain: B2 chain with M55T, F57Y, H58V, K59V, D60N, A63S, I65V
B16: KLK4/KLK8 inhibitory peptide K41046 (designed binder)
chain: B3 chain with E55G, H56R, A57Y, Q58Y, L59R, V61W, Q63F, L65S, Y66L, Q67E
B17: KLK1 inhibitory peptide K10066 (designed binder)
chain: GSGMKETAAAKFERQHMDSPDLGTDDDDKAMADIGSANSDPQFGLFSKYRTPNCSVALRDICWWTSEPVCGSDMSTYANECTLCMKIREGGHNIKIIRNGPCGASAAA
B18: KLK4/KLK8 inhibitory peptide K41043 (designed binder)
chain: B2 chain with M55R, F57Y, H58S, K59I, D60H, A63N, I65M, D67A

Target: activated KLK1 (human KLK1, C-terminal His tag, pro-KLK1 activated with thermolysin) (UniProt P06870 25-262)
Assay: peptide substrate degradation inhibition

Chain of activated KLK1 (human KLK1, C-terminal His tag, pro-KLK1 activated with thermolysin) (P06870 25-262): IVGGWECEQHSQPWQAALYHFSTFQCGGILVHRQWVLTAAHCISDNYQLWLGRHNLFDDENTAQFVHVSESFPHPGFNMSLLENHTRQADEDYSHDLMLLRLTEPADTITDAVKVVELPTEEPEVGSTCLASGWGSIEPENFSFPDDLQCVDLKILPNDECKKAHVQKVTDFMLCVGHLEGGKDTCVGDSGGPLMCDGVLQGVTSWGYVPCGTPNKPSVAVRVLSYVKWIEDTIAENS

Binder | IC50
B1 | 20 nM
B2 | > 1000 nM
B3 | > 1000 nM
B4 | > 1000 nM
B5 | > 1000 nM
B6 | > 1000 nM
B7 | > 1000 nM
B8 | > 1000 nM
B9 | 13 nM
B10 | > 1000 nM
B11 | 12 nM
B12 | > 1000 nM
B13 | > 1000 nM
B14 | > 1000 nM
B15 | > 1000 nM
B16 | > 1000 nM
B17 | 12 nM
B18 | > 1000 nM

Target: T1, activated KLK4 (human KLK4, C-terminal …)
Assay: peptide substrate degradation inhibition

Binder | IC50
B1 | > 1000 nM
B2 | 7.4 nM
B3 | 2.1 nM
B4 | 2.2 nM
B5 | 1.8 nM
B6 | 2.7 nM
B7 | 86 nM
B8 | 293 nM
B9 | > 1000 nM
B10 | 1.8 nM
B11 | > 1000 nM
B12 | 53 nM
B13 | 15.7 nM
B14 | 2.3 nM
B15 | 293 nM
B16 | 2 nM
B17 | > 1000 nM
B18 | 1.9 nM

Target: T2, activated KLK8 (human KLK8, C-terminal …)
Assay: peptide substrate degradation inhibition

Binder | IC50
B1 | > 1000 nM
B2 | 31.5 nM
B3 | > 1000 nM
B4 | > 1000 nM
B5 | > 1000 nM
B6 | 11.4 nM
B7 | 17 nM
B8 | 9.1 nM
B9 | > 1000 nM
B10 | > 1000 nM
B11 | > 1000 nM
B12 | 7.5 nM
B13 | 17.5 nM
B14 | 114 nM
B15 | 8 nM
B16 | 283 nM
B17 | > 1000 nM
B18 | 5.3 nM

Target: T3, KLK4 biotinylated with EZ-Link …
Assay: SPR (Biacore T200)

Binder | Kd
B5 | 0.0232 nM
B10 | 0.00208 nM
B18 | 0.00891 nM

Target: T1, activated KLK4 (human KLK4, C-terminal …)
Assay: peptide substrate degradation inhibition
Remark: another data set of the same source

Binder | Ki
B2 | 1.38 nM
B3 | 0.38 nM
B4 | 0.21 nM
B5 | 0.2 nM
B6 | 0.4 nM
B7 | 16.3 nM
B8 | 69.3 nM
B10 | 0.16 nM
B12 | 10.7 nM
B13 | 2.8 nM
B14 | 0.32 nM
B15 | 74.6 nM
B16 | 0.31 nM
B18 | 0.21 nM
